# Measured values from the nanobody polyreactivity screen of Harvey et al. (2022).
# Assay: yeast display, Sf9 membrane polyspecificity reagent, FACS + sequencing; frameworks hold sequencing errors
# Method in brief: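 Nanobodies from a synthetic yeast display library (Saccharomyces cerevisiae BJ5465), induced 36–48 hours with galactose, were stained 1 hour at 4 °C with 10% biotinylated, detergent-solubilized Sf9 membrane reagent, enriched on streptavidin microbeads, then FACS-sorted. Anti-HA (expression) and streptavidin (reagent binding) fluorescence set low and high (top ~1%) gates. Polyreactivity labels come from the gate of origin. Genes were colony-PCR amplified, MiSeq 2 × 250 sequenced and filtered by CDR length.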
row,Sequence,polyreactivity (PSR sort gate)
1,QVQLVESGGGLVQARGSLRLSCAASGSTFLFYAMGWYRQPPGKERELVAAISRGDSTYYAESVKGRFTISRDIAKNTVYLQMNSLKPEDTAVYYCAAGYNHLYVYRMYYWGQGTQVTVSS,high polyreactivity
2,QVQLVESGGGLVQARGSLRLSCAASGSTFQYTMGCYRQAPRTERELVAAITSTGGSTYYADSVKGRFTISRDNAKNTVYLQRNSLKAEDTAVYYWNADYFGGGDYWGQGTQVTVSS,low polyreactivity
3,QVQLVESGGGLVQARGSLRLSCAASGSTFSYYTMGWYRQAPGKERELVATISRRGASTYYADSVKGRFTISRDNAKNTVYLQMHSLKPEDTAVYYCAKSYYYGRSATRPEYDYWGQGTQVTVSS,high polyreactivity
4,QVQLVESGGGLVQARGSLRLSCAASGSTILYYAMGWYRQAPGKERELVAVIRLDAGRTYYADSVKGRFTISRDNAKNTVYFQMNSLKPEDTAVYYCAAKGCFRTYGGGNYWGQGTQVTVSS,high polyreactivity
5,QVQLVESGGGLVQARGSLRLSCAASVSTFGGNAMGWYRQAPGKERQLVAAISCIGGGTYYADSVKGRFTISRDNAKNTVYLQMKSLKPEYTAVYYCAAKIFIRVHYYSYRMYYWGQGTQLTVSS,low polyreactivity
6,QVQLVESGGGLVQARGSLRLSCAATGSTLSFYAMVWYRQAPGKERELVAAISYSTGTTYYADSVKGRFTISRDNAKNTVYLQMNSLKPEDTAVYYCNAVGTGGYSSEYGYWGQGTQVTVSS,high polyreactivity
7,QVQLVESGGGLVQARGSLRLSCEASGFTFGSNTMACYRQAPGKERELVAAITRRGGSTNYADSVKGRFTISRDNAKNTVYLQMNSLKPDDTAVYYCARDYRSYTVSYDTSYDYWGQGTQVTVSS,high polyreactivity
8,QVQLVESGGGLVQARGSLRLSSAASGSTFVVNAMGWYRQAPGKERELVAAITQSGGSTFYADSVKGRFTISRVNAKNTVYLQMNSLQAEDTAVYYWGQGTQVTVSS,low polyreactivity
9,QVQLVESGGGLVQARGSLRLSSGASGSTFATDYAMGWYRQAPGKERELDAAIAYTSASTYYADSVKGRITISRDNAKNPVYLQMNTLKPEDTAVYYCAADYGGTREYYWGQGTQVTVSS,low polyreactivity
10,QVQLVESGGGLVQARGSRRLSCAASGFIFRFNAMGWYRQAPGKERELVASITGSGGITYADSVKRRFTMSRDNAKNTVFLPMHSLKPDDTAVYYSAARGDGYQSGWVADWAPFYYWRQGTQVTVSS,high polyreactivity
11,QVQLVESGGGLVQARRSLRLSCAASGFTVKRYAMGWYRPEPGKEREFVAAITRGGGSTYYADYVKGRFTISRDNAKNTVYLQMNSLKPEDTAVYYCNARSRSYVPYYYWGQGTQVTVSS,high polyreactivity
12,QVQLVESGGGLVQARRSLRLSCAASGNIFWRNAMGWYRQAPGKERELVAAISRRAVSTYYADSVKGRFTISRDNAKNTVYLQMNSLKPEDTAVYYCAARLGGENDYWGQGTQVTVSS,high polyreactivity
13,QVQLVESGGGLVQAVASLRLSCAASGRIFGPYAMGWDRQAPGKERELVASITRSGGRTYYADSVKGRFTISRDYAKNTVYLQMNSLKPDDTAVYYCAAGGFSKSDYYWGQGTQVTVSS,high polyreactivity
14,QVQLVESGGGLVQAVGRLRLSCAASGGIFSINAMGWYRQAPGKERELVAAIRWNSGRTYYADSVKGRFTISRDNAKNTVYLQMNSLKPEDTAVYYCAVRDYISWEDYYWGQGTQVTVSS,high polyreactivity
15,QVQLVESGGGLVQAVGRLRLSCAASGSTFAIYAMGWYRQAPGKERELVAAITVSGGSTYYADSVKGRFTISRDNAKNTVYLQMNSLKPEDTAVYYCNADWSGWQGWYNYWGQGTQVTVSS,low polyreactivity
16,QVQLVESGGGLVQAVGSLRLSCAACGSIFYWNALGWYRQAPGKEREFVASIRKSGGSTNYADSVKGRFTISRDNAMNTVYLQMNSMKPEDSAVYDCAAYSYYRGPIYDYWGQGTQVTVSS,low polyreactivity
